± gives the standard deviation of the averaged measurements.

The text below walks through data of the supplement of paper PMC10724198.
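Also: PSI is a weighted mean of sequencing reads over stability bins, variants kept only with over 10 reads, mCherry proximal and sfGFP distal, peptide attached via GGGS linker.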

For the data set, the system named is Saccharomyces cerevisiae. Nature of the data set: protein stability index of tFT-peptide fusion (C-terminal peptide) (PSI (0-1 scale)); higher = more stable (slower turnover). The conditions noted are these: genetic background: wild type; temperature: 30 C. Here is the method: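 Multiplexed protein stability (MPS) profiling in S. cerevisiae. Random 12-aa peptides (tFT-X12 library) are fused to the C-terminus of a sfGFP-mCherry tandem fluorescent timer, after mCherry and a GGGS linker. Cells are FACS-sorted into 8 mCherry/sfGFP bins and deep-sequenced. The protein stability index (PSI) is the read-weighted bin average, scaled from 0 (unstable) to 1 (stable). Only peptides with >10 reads are reported; cells were grown at 30 °C in SC-His with glucose.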
GGVAAVGGPWGN displayed a protein stability index of 0.75 ± 0.052.
Take GGVASGGCFWGR: the protein stability index was found to be 0.6761 ± 0.0053.
As to GGVECVRGTGGR, the protein stability index came to 0.659 ± 0.046.
Turning to GGVGLVGEVCPI, the protein stability index was 0.688 ± 0.028.
The result for GGVGRGADASLA reads 0.622 ± 0.017.
The result for GGVPGEGTGGRE reads 0.644 ± 0.027.
As for GGVRVPRVDVVG, the protein stability index was determined as 0.618 ± 0.042.
Turning to GGWAGGRQGCGG, the protein stability index is 0.77 ± 0.012.
Turning to GGWAHGEGAGDC, the protein stability index was determined as 0.614 ± 0.028.
As to GGWFLLTRLGNW, the protein stability index was 0.684 ± 0.035.
In the case of GGWGWGERRSRE it was 0.658 ± 0.06.
GGWHVVGGEGVG yielded a protein stability index of 0.524 ± 0.0082.
For GGWSHMHLGLDG, the protein stability index was 0.665 ± 0.024.
As to GGYDFRCPCCGV, the protein stability index is 0.723 ± 0.025.
For the sequence GHGFPSLPLILS, the protein stability index was found to be 0.57 ± 0.076.
GHGLLYLIDLCS showed a protein stability index of 0.638 ± 0.074.
GHLCVPWFGLVL came in with a protein stability index of 0.659 ± 0.11.
GHRTIPHSNCLS came in with a protein stability index of 0.65 ± 0.0099.
The result for GHSLARHRHRGS reads 0.701 ± 0.0095; that for GHSNRDCFGIKC, 0.621 ± 0.024.
With GHWRQCSVAEGA, the protein stability index amounted to 0.643 ± 0.0024.
In the case of GHYLLCPQGQSD it was 0.6675 ± 0.0024; in that of GIARRSHSNETV, 0.766 ± 0.078; in that of GIEAKPLEGKTQ, 0.7026 ± 0.0018.
In the case of GIGLYMWRNSKW it was 0.796 ± 0.04; in that of GIGRGLGGLKSG, 0.617 ± 0.026; in that of GIGRRIGSELSF, 0.668 ± 0.047.
Regarding GIHFKIHKSSSN, the protein stability index was determined as 0.647 ± 0.013.
GIKTRTTRVRGE returned a protein stability index of 0.706 ± 0.018.
GILPDSCRSNTG displayed a protein stability index of 0.623 ± 0.081.
GILVALGSPLLV returned a protein stability index of 0.592 ± 0.048.
In turn, GINRLRNKEKEE showed a protein stability index of 0.775 ± 0.073.
In the case of GISGRPDGGRGG, the protein stability index came to 0.658 ± 0.0071.
The result for GKEEGRETGREG reads 0.741 ± 0.038; that for GKFKKRIRRGIK, 0.695 ± 0.011; that for GKGDEPKAPTDR, 0.65 ± 0.028.
Turning to GKGTRGTRRGGK, the protein stability index is 0.632 ± 0.024.
On to GKIKKTTDKILI, for which the protein stability index is 0.639 ± 0.11.
The result for GKILSNNQIFKR reads 0.702 ± 0.057.
Consider GKKNNENKYDMR, for which the protein stability index worked out at 0.7304 ± 0.0051.
The sequence GKKRANQSRSLP gave a protein stability index of 0.76 ± 0.19.
For the sequence GKLHKNTDEIET, the protein stability index was determined as 0.762 ± 0.062.
The result for GKLKVKIYESSK reads 0.658 ± 0.061; that for GKLRGTGGRAGE, 0.669 ± 0.012.
The result for GKLWTIIFPLFF reads 0.503 ± 0.035; that for GKPFAWVAVVGD, 0.729 ± 0.051; that for GKREGRGRKRGG, 0.807 ± 0.092.
The result for GKRYLIKKRKKT reads 0.698 ± 0.021; that for GKSESATLMVTV, 0.697 ± 0.18.
Turning to GKSGGAVRGCGG, the protein stability index was 0.657 ± 0.044.
With GKSGVTGAGEKR, the protein stability index was determined as 0.681 ± 0.06.
As to GKSLLPATYDYY, the protein stability index was 0.677 ± 0.04.
In the case of GKTITNENPKGH it was 0.705 ± 0.021; in that of GKVSVSGRELGG, 0.65 ± 0.033.
The sequence GLARPLYALYRR had a protein stability index of 0.618 ± 0.081.
In the case of GLASLTVGAASV, the protein stability index worked out at 0.671 ± 0.011.
In the case of GLATISARYFCL it was 0.647 ± 0.064; in that of GLCCFWSYRASR, 0.687 ± 0.035.
In turn, GLCHFVRLSCFC gave a protein stability index of 0.5186 ± 0.0024.
GLCRGHMSTMVD gave a protein stability index of 0.641 ± 0.064.
Regarding GLCVLVASCGRG, the protein stability index turned out to be 0.664 ± 0.15.
GLDEVKVVSKKK yielded a protein stability index of 0.689 ± 0.051.
GLDHRLALLYPS returned a protein stability index of 0.736 ± 0.036.
Consider GLFCGLGVGTCG, for which the protein stability index stood at 0.621 ± 0.059.
As for GLGEDVGLGLGW, the protein stability index was 0.669 ± 0.051.
GLGGNVLRVIFA registered a protein stability index of 0.561 ± 0.021.
On to GLGLASWGDLEL, for which the protein stability index was determined as 0.739 ± 0.039.
Consider GLGLHKDGSTGG, for which the protein stability index was found to be 0.6093 ± 0.003.
Regarding GLGMWSVRCAGW, the protein stability index was found to be 0.649 ± 0.0067.
Sequence GLHVPLTGFCFC registered a protein stability index of 0.63 ± 0.02.
GLIRGFLRYPGM registered a protein stability index of 0.691 ± 0.033.
In the case of GLKWTGLEWHFL, the protein stability index was 0.693 ± 0.041.
GLLRSHYLDRGF yielded a protein stability index of 0.693 ± 0.047.
Sequence GLPRFFKNPPVV gave a protein stability index of 0.6445 ± 0.0043.
The sequence GLPWRGVGGGSG registered a protein stability index of 0.719 ± 0.038.
In turn, GLQPVGLYPFQL registered a protein stability index of 0.668 ± 0.008.
The result for GLRFVPLPLRPV reads 0.73 ± 0.029.
